These results are taken from patent CN116723860A (NOVARTIS AG, dated 2023).

The target in one assay is T1, 重组人IL-1β (human, UniProt P01584 117-269).
T1 construct: also called huIL-1β; IL-1b
Put plainly: solution equilibrium titration (SET), single target binding assay, mean KD.

The target in a further assay is T2, 重组人IL-18 (human, UniProt Q14116 37-193).
T2 construct: also called huIL-18; BTP 25829
Put plainly: SET, single target binding assay.

B1: mAb2 (antibody, human IgG1, kappa, V domains shown)
VH: QVQLVESGGGVVQPGRSLRLSCAASGFTFSVYGMNWVRQAPGKGLEWVAIIWYDGDNQYYADSVKGRFTISRDNSKNTLYLQMNGLRAEDTAVYYCARDLRTGPFDYWGQGTLVTVSS
VL: EIVLTQSPDFQSVTPKEKVTITCRASQSIGSSLHWYQQKPDQSPKLLIKYASQSFSGVPSRFSGSGSGTDFTLTINSLEAEDAAAYYCHQSSSLPFTFGPGTKVDIKR
notes: Human anti-IL-1β antibody, bivalent; also called IL-1β抗体; 卡那吉努单抗 (canakinumab)
As to B1, the Kd (in general, the concentration at which binding is half-saturated) with 重组人IL-1β was determined as 0.6 pM.

B2: mAb1 (antibody, human IgG1, lambda, L234A L235A, V domains shown)
VH: EVQLVQSGAEVKKPGSSVKVSCKASGGTFKSYAISWVRQAPGQGLEWMGNIIPMTGQTYYAQKFQGRVTITADESTSTAYMELSSLRSEDTAVYYCARAAYHPLVFDNWGQGTLVTVSS
VL: DIVLTQPPSVSGAPGQRVTISCSGSSSNIGNHYVNWYQQLPGTAPKLLIYRNNHRPSGVPDRFSGSKSGTSASLAITGLQSEDEADYYCQSWDYSGFSTVFGGGTKLTVLG
notes: Human anti-IL-18 antibody, bivalent; also called IL-18抗体
With B2, the binding result in the assay with 重组人IL-18 was “binds”.
